Assay results: the supplement of paper PMC10567573

B1: WDR41 (parent)
chain: HVGELIIWDALDWTMQAYERNFWD
B2: KRT15 (parent)
chain: FGGGSTRGGSLLAGGGGFGGGSLS
B3: IQUB (parent)
chain: CRNCINLQNEAQKRESFLKYKCLL

Variants of: B1
Assay: protein stability index of a GFP-peptide fusion (GPS, HEK-293T) (PSI 1-6); higher = more stable
Settings: c terminus: a fixed tail appended
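Also: lentivirally expressed fusions sorted by FACS into six bins by GFP to DsRed ratio, PSI derived from sequencing read proportions per bin multiplied by bin number.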

Protein stability index, by site and new letter:
L5: M 1.97 | G 1.92 | R 1.5 | A 1.95 | Q 2.13 | D 2.17 | K 2.21 | Y 3.11 | F 3.54 | P 1.99
A10: D 1.6 | N 1.05 | G 1.95 | S 1.63 | P 1.5 | T 3.56 | H 1.61
E4: D 1.86 | G 1.85 | F 3.77 | Y 3.22 | K 1.84
D12: F 3.35 | Y 1.11 | P 2.1
H1: I 4.28 | S 3.37 | R 1.58 | M 3.52 | T 2.01 | N 1.48
W23: E 1.72 | P 1.45 | N 1.71 | G 2.62 | V 3.03 | S 1.82 | L 1.8
Q16: M 2.63 | G 1.78
G3: L 1.72 | H 2.49 | S 1.84 | T 2.82
D24: I 3.06 | H 4.96
W8: P 2.16 | S 1.51 | M 2.85 | I 2.39 | Y 1.42 | R 2.78 | Q 1.98 | T 1.28
Y18: N 2.18 | A 3.71 | H 1.6 | C 3.15
I6: K 2.75 | T 1.87 | E 1.36 | G 1.22 | S 1.66 | Y 2.39 | N 2.17
L11: D 1.77 | V 3.1 | T 1.46 | A 1.61 | Y 2.08 | I 3.82 | H 2.06 | Q 2.86
N21: D 1.87 | M 3.52 | S 2.11 | I 2.9 | G 2.56
D9: L 1.54 | R 2.69 | H 2.88 | M 3 | T 3.42
W13: H 2.04 | A 1.98 | E 1.59 | C 2.51 | N 1.69 | K 2.37 | Q 2.21 | Y 2.84
M15: G 1.06 | K 3.06 | S 1.88 | D 1.76
I7: M 1.52 | K 1.96 | P 2.87 | S 2.33 | Y 2.71 | H 2.17 | C 1.26 | L 1.93 | N 2.19 | A 1.87 | V 1.59 | E 2.41
V2: L 3.8 | A 1.58 | R 1.09 | T 1.92 | P 1.54 | G 1.65 | F 2.69 | S 2.47 | K 2.35 | Q 2.35
E19: V 1.87 | C 2.17 | Q 3.24 | T 1.44 | D 1.67 | H 2.77
T14: V 2.54 | D 1.68 | Y 4.99 | S 1.24 | K 2.31
F22: T 3.49 | G 2.8 | M 2.71 | L 2.35
A17: I 1.15 | H 1.63 | N 4.42 | G 1.81 | P 1.76 | F 3.37 | T 1.74
R20: G 1.75 | N 2.98 | L 3.16 | K 1.5 | A 1.32 | T 3.97 | E 1.46 | C 1.24

Variants of: B2
Assay: as above
Settings: c terminus: a fixed tail appended

Protein stability index of substitutions, site by site:
L11: M 1.6 | A 2.83 | F 1 | I 1.56 | N 2.78 | R 2.08 | Y 1.97
S5: Q 2.55 | F 2.1 | P 1.53 | A 1.57
R7: D 1.54 | P 3.05 | N 1.7 | K 2.32
G4: I 2.59 | F 1.77 | L 2.04 | S 1.68 | P 2.94 | H 2.22 | R 1.58 | E 2.55 | K 2.15 | W 2.61 | C 1.37 | Q 2.17 | M 1.89
L12: G 3.23 | Q 2.67 | M 2.58 | D 3.38 | C 1.7 | R 3.6 | P 3.24 | I 2.75 | N 3.01 | E 2.72 | Y 1.52
G16: E 1.55 | V 1.28 | R 1.56 | Q 2.4 | T 1.09 | K 2.14 | Y 1.9 | M 2.16 | D 1.84
L23: M 2.73 | Q 1.96 | G 2.26 | I 1.61
S24: I 1.84 | M 3.68 | K 1.49 | N 1.71 | D 1.61 | T 2.51 | P 2.66
G17: T 3.32 | V 1.23 | N 1.41 | E 2.74 | H 1.63 | S 1.64 | K 1.41 | M 1.07 | C 1.03
G14: P 2.17 | S 2.43 | R 2.42 | I 1.85 | N 2.94
G19: D 1.47 | K 3.1 | S 2.06 | I 3.12 | N 2 | F 2.8 | E 2.35
F18: H 3 | P 2.21 | I 1.76
G20: Q 1.09 | K 2.1 | P 3.18 | T 1.74 | N 2.17 | S 1.77 | C 1.41 | Y 2.52
G3: I 3.22 | H 1.51 | R 2.26 | W 1.29 | Y 2.2 | A 1.79 | L 2.42 | Q 2.17 | M 2.74 | N 1.93 | F 1.7 | D 1.32
F1: I 2.53 | S 3.46 | K 4.35 | Y 2.25 | M 2.08
A13: I 1.46 | D 3.4 | V 1.94 | L 2.1 | M 2.13 | R 2.67 | C 1.94 | H 2.53
S22: H 2.29 | L 1.6 | R 2.82 | T 2.05 | Q 1.48 | F 2.49
G15: K 3.17 | H 3.02 | V 1.34 | R 2.08 | C 1.56 | A 1.9
G21: R 1.24 | S 1.95 | D 1.75 | L 1.52 | P 2.65 | I 1.34 | N 2.48
G9: D 2.73 | Q 3.25 | V 1.84 | S 1.05 | N 2.35
S10: K 1.28 | I 1.79 | W 4.19 | P 2.12 | R 1.4 | Q 1.89
G2: W 2.54 | K 3.23 | S 1.75 | Q 2 | N 2.94 | F 2.47 | R 2.79 | P 1.96 | M 2.15
T6: H 1.48 | M 1.33 | V 1.23 | F 2.52 | K 1.66 | E 1.62
G8: F 3.67 | T 1.8 | I 1.58 | D 1.57 | R 2.5 | S 1.62 | E 1.64

Variants of: B3
Assay: as above
Settings: c terminus: a fixed tail appended

Protein stability index: each site, then its substitutions
L24: N 1.86 | G 1.37 | S 3.46 | P 2.22 | K 2.53 | F 1.82 | D 2.81 | V 1.27 | T 1.8 | H 2.19 | A 2.56 | I 1.75 | R 1.82 | W 1.46 | Q 1.74 | C 3.57 | M 1.79 | Y 1.69 | E 1.65
